Laboratory results: IntAct's records for PubMed 22579247

B1: Abscisic acid receptor PYL3 (Arabidopsis thaliana (Mouse-ear cress)), Q9SSM7 (parent)
chain: MNLAPIHDPSSSSTTTTSSSTPYGLTKDEFSTLDSIIRTHHTFPRSPNTCTSLIAHRVDAPAHAIWRFVRDFANPNKYKHFIKSCTIRVNGNGIKEIKVGTIREVSVVSGLPASTSVEILEVLDEEKRILSFRVLGGEHRLNNYRSVTSVNEFVVLEKDKKKRVYSVVLESYIVDIPQGNTEEDTRMFVDTVVKSNLQNLAVISTASPT

Variants of: B1
Details: with HAB1, Q9CAJ0

| Variant | effect of a mutation on the interaction |
| --- | --- |
| S195L | increasing interaction strength |
| F81A;V202A;I203A | increasing interaction strength |
